Source: patent CN110156890A (UNIV SUZHOU, dated 2019)

Assays:
小鼠Sema7A蛋白 = molecular target: T1, 小鼠Sema7A蛋白 (mouse, UniProt Q9QUR8 45-646); assay: western blot of mouse lung tissue
T1 construct: Endogenous protein of mouse lung tissue, denatured on a western blot; also called Semaphorin7A
T1 sequence (looked up): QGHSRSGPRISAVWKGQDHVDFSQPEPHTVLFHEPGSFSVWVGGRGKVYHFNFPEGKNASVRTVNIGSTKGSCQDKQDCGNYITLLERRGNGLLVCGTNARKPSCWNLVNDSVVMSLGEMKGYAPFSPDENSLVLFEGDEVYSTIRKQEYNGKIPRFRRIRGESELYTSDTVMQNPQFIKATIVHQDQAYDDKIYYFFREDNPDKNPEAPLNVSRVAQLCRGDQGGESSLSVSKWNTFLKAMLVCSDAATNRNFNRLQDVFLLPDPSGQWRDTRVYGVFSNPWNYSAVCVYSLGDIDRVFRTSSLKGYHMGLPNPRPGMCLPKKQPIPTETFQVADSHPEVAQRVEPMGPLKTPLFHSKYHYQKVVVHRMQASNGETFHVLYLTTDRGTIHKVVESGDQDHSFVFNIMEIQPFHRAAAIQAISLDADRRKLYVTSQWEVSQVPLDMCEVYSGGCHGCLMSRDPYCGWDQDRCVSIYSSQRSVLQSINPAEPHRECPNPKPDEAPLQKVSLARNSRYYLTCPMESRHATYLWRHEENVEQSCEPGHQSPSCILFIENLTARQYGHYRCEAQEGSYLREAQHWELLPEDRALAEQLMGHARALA

Sema7A_truncated抗原蛋白 = molecular target: T2, Sema7A_truncated抗原蛋白 (mouse, UniProt Q9QUR8 59-219); assay: ELISA, 1 ug antigen coated, antibody dilution series
T2 construct: Truncated part of mouse Sema7A chosen for antigenicity, expressed in E. coli from pET28a; also called Sema7A-His; not shown: His tag from pET28a (Sema7A-His)
T2 sequence: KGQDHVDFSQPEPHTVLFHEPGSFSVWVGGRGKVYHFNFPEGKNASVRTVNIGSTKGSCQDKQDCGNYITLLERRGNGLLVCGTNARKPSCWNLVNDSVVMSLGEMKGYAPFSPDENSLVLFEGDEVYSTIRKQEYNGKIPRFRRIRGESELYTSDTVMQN

- binding result (小鼠Sema7A蛋白): binds
- binding result (Sema7A_truncated抗原蛋白): binds
B1: Semaphorin7A单克隆抗体2567-1 (antibody, V domains shown)
VH: QVQLQQSGAELVKPGASVKLSCKASGYTFTSYYMYWVKQRPGQGLEWIGEINPSNGDTNFNEKFKSKATLTVDKSSSTAYMQLSSLTSEDSAVYYCTTPARATFAYWGQGTLVTVSA
VL: DVVMTQTPLSLPVSLGDQASISCRSSQSLVHSNGNTYLHWYLQKPGQSPKLLIYKVSNRFSGVPDRFSGSGSGTDFTLKISRVEAEDLGVYFCSQSTHVPYTFGGGTKLEIK
notes: also called Sema7A抗体2567-1
